Laboratory results as given in article PMC2175199 (The Journal of Cell Biology, 2000).

T1: XSA2 (Xenopus laevis (endogenous in egg …, UniProt Q9DGN0 1-1194))
T1 sequence: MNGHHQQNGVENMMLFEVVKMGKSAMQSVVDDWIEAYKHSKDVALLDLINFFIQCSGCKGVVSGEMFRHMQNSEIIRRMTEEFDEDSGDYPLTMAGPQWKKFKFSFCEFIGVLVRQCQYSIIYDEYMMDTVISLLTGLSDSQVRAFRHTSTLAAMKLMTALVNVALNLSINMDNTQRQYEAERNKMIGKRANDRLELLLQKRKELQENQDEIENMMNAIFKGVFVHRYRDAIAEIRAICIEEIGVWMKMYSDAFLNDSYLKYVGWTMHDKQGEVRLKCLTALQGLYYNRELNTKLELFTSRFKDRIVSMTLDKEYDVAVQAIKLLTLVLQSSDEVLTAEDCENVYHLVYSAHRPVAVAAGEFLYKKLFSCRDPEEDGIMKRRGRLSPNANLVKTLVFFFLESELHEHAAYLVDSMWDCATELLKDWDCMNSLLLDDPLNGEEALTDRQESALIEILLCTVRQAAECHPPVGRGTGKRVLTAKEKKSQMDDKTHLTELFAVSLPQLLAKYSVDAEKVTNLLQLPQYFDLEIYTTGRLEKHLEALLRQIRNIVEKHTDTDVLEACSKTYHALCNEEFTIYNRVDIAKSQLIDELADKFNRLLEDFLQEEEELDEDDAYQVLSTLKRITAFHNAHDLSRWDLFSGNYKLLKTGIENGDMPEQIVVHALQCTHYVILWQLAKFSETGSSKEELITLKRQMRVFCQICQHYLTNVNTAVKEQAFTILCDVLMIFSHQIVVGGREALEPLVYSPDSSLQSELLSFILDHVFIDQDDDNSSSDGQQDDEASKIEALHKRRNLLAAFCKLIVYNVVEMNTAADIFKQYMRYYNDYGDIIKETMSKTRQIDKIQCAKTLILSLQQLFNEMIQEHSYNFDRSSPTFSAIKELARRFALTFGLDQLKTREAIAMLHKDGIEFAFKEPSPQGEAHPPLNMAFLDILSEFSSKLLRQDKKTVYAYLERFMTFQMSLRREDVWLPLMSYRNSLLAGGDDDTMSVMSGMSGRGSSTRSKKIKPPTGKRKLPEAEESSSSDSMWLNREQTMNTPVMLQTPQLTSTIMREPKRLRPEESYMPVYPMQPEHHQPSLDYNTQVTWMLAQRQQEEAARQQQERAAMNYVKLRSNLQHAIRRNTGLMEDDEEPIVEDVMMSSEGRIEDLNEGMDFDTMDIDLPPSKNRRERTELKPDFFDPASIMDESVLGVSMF

B1: XSMC3 (natural protein)
chain: MYIKQVIIQGFRSYRDQTIVDPFSSKHNVIVGRNGSGKSNFFYAIQFVLSDEFSHLRPEQRLALLHEGTGPRVISAFVEIIFDNSDNRLPIDKEEVSLRRVIGAKKDQYFLDKKMVTKNDVMNLLESAGFSRSNPYYIVKQGKINQMATAPDSQRLKLLREVAGTRVYDERKEESISLMKETEGKRDKINELLKYIEERLHTLEEEKEELAQYQKWDKMRRALEYTIYNQELNETRAKLDELSSKRETSGEKSRQLRDAQQDARDKMEEIERQVRELKSKISAMKEEKEQLSSERQEQIKQRTKLELKTKDLQDELAGNSEQRKRLLKERQKLLEKIEEKQKELAETEPKFSSVKQKEESGIARLAQATQERTDLYAKQGRGSQFTSKEERDKWIKKELKSLDQAINDKKRQIAAINKDLEETEVNKEKNLEQYTKLDQDLNEVKTRVEELDKKYYEVKNKKDELQSERNYLWREENAEQQSLAAKREDLEKKQQLLRAATGKAILNGIDSINKVLEHFRRKGINQHVINGYHGIVMNNFDCEPAFYTCVEVTAGNRLFYHIVESDEVSTKILMEFNKMNLPGEVTFLPLNKLDVRDTAYPETNDAIPMISKLRYNLRFDKAFKHVFGKTLICRSMEVSTQLARAFTMDCITLEGDQVSHRGALTGGYYDTRKSRLELQKDVRKVEDELHALEAKLNENLRRNIERINNEIDQLMNQMQQIETQQRKFKASRDSILSEMKMLKEKRQQSEKTFMPKQRSLQSLEASLHAMESTRESLKAELGTDLLSQLSLEDQKRVDALNDEIRQLQQENRQLLNERIKLEGTITRVETYLNENLRKRLDQVEQELNELRETEGGTVLTATTSELEAINKRVKDTLARSEGLDITIDKTEVESKDLVKSMDRWKNMEKDHMDAINHDTKELEKMTNRQGMLLKKKEECMKKIRELGSLPQEAFEKYQTLSLKQLFRKLEQCNTELKKYSHVNKKALDQFVNFSEQKEKLIKRQEELDRGHKSIMELMNVLELRKYEAIQLTFKQVSKNFSEVFQKLVPGGKATLVMKKGDVEGSQSQDEGEGSTQSSVPSVDQFTGVGIRVSFTGKQAEMREMQQLSGGQKSLVALALIFAIQKCDPAPFYLFDEIDQALDAQHRKAVSDMIMELASHAQFITTTFRPELLESADKFYGVKFRNKVSHIDVITAEQAKDFVEDDTTHG
B2: XSMC1 (natural protein)
chain: MGFLKLIEIENFKSYKGRQIIGPFHRFTAIIGPNGSGKSNLMDAISFVLGEKTSNLRVKTLRDLIHGAPVGKPAANRAFVSMVYSEDSGEEKVFSRVIVGGSSEYKINNKVVQLSEYSDSLEKLGILIKARNFLVFQGAVESIAMKNPKERTALFEEISRSGELAQEYDKRKKEMVKAEEDTQFNYHRKKNIAAERKEAKQEKEEAERYQRLKDEVARAQIQLQLFKLYHNESEIEKLNKELSVKNKGIEKDKKHMDKVEEELKDKKKELGKMMREQQAIEKEIKEKDAELNQKLPQYIKAKENPSHKIKKFRAAKKSLQNAQKQYKKRKADMDELEKEMLSVEKARQEFEERMEEESQSQGRDLTLEENQVKKYHRLKEEASKRAATLAQELEKFNRDQKADQDRLDLEERKKVETEAKIKQKLRELEENQKRIEKLEEYIATSKQSLEEQKNLEETLTEEVEMAKRRIDEINSELNQVMEQLGDARIDRQESSRQQRKAEIMESIKRLYPGSVYGRLIDLCQPTQKKYQIAVTKVLGKNMDAIIVDSEKTGRDCIQYIKEQRGEPETFLPLDYLEVKPTDERLRELKGAKLVIDVIRYEPPHIKKALQYACGNALVCDNVEDARRIAFGGHQRHKTVALDGTLFQKSGVISGGASDLKAKARRWDEKAVDKLKEKKERLTEELKEQMKAKRKEAELRQVQSQAHGLQMRLKYSQSDLEQTKTRHLAMNMQEKSKLESELANFSPRINDIKRIIQSRDREMKDLKEKMNQVEDEVFEEFCREIGVRNIREFEEEKVKRQNEIAKKRLEFENQKTRLGIQLDYEKNQLKEDQGKVQTWEQSVKKDDNEIEKLKKEEQRHMKIIDETMAQLQDLKNQHLAKKSEVNDKNHLMEDIRKKLGSANKEVTHLQKEVTAIETKLEQKRSDRHNLLQACKMSDIKLPLSKGTMDDISQEEGSSQGEESASSSQRSSTVYAKEALIEIDYSDLSEDLKDAVADDDIKQEMSALHQKINEQQSILQRISAPNMKAMEKLESVRDKFQETSDEFEAARKRAKKAKQAFEQTKKERFDRFNACFESVATNIDEIYKALSRNSSAQAFLGPENPEEPYLDGINYNCVAPGKRFRPMDNLSGGEKTVAALALLFAIHSYKPSPFFVLDEIDAALDNTNIGKVANYIKEQSMSNFQAIVISLKEEFYTKAESLIGVYPEQGDCVISKVLTFDLTKYPDANPNPND

Target: T1, XSA2
Assay: co-IP

Binder | percent depleted from the extract by anti-XSA2 [%]
B1 | ~5
B2 | ~5
